The values below come from patent US20210347873A1 (SHANGHAI PHARMAEXPLORER, published 2021).

Experiment [1] deals with hBLyS-ECD (His-tagged extracellular domain of human BLyS protein, Ala134-Leu285) (human) (UniProt Q9Y275). Nature of the experiment: cell-based or functional assay.
Experiment [2] addresses biotinylated hBLyS-ECD (human) (UniProt Q9Y275). Nature of the experiment: ELISA on captured biotinylated hBLyS-ECD; control antibody 2.67 nM. A general note: In an ELISA, binding on a coated surface is turned into a signal by an enzyme label.
For experiment [3] the target is unchanged. Briefly: BAFF R-coated ELISA, biotinylated hBLyS-ECD bound in presence of control antibody 4 nM.
Experiment [4] has the same target. Briefly: BAFF R-coated ELISA, biotinylated hBLyS-ECD bound in presence of control antibody 0.16 nM.
The target is the same in experiment [5]. Nature of the experiment: ELISA on captured biotinylated hBLyS-ECD; control antibody 66.7 nM.
Experiment [6] shares this target. Briefly: BAFF R-coated ELISA, biotinylated hBLyS-ECD bound in presence of control antibody 0 nM.
Experiment [7] shares this target. Briefly: BAFF R-coated ELISA, biotinylated hBLyS-ECD bound in presence of control antibody 100 nM.
Experiment [8] has the same target. Nature of the experiment: ELISA on captured biotinylated hBLyS-ECD; control antibody 0 nM (background).
For experiment [9], the target named is His-tagged extracellular domain of human BLyS protein (hBLyS-ECD), Ala134-Leu285 (human) (UniProt Q9Y275). Briefly: cell-based or functional assay.
Experiment [10] has as its target extracellular domain of human BLyS protein (hBLyS-ECD), His-tagged, Ala134-Leu285 (human) (UniProt Q9Y275). Briefly: cell-based or functional assay.
Experiment [11] deals with biotinylated hBLyS-ECD (human) (UniProt Q9Y275). Nature of the experiment: ELISA on captured biotinylated hBLyS-ECD; control antibody 66.7 nM. This is another data set of the same source.
biotinylated hBLyS-ECD (human), sequence (Q9Y275 134-285): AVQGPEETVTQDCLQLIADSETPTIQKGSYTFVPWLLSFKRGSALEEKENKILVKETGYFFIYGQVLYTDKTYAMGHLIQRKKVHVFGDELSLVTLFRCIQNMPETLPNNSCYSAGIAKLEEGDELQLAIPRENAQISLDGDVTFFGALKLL
The target is the same in experiment [12]. Briefly: ELISA on captured biotinylated hBLyS-ECD; control antibody 0.534 nM.
The target is the same in experiment [13]. Briefly: ELISA on captured biotinylated hBLyS-ECD; control antibody 0.107 nM.
Experiment [14] shares this target. Nature of the experiment: ELISA on captured biotinylated hBLyS-ECD; control antibody 0 nM (background). The source holds these as a separate data set.
Experiment [15] has the same target. Briefly: BAFF R-coated ELISA, biotinylated hBLyS-ECD bound in presence of control antibody 0.8 nM.
Experiment [16] shares this target. Nature of the experiment: BAFF R-coated ELISA, biotinylated hBLyS-ECD bound in presence of control antibody 4 nM. This is another data set of the same source.
Experiment [17] has the same target. Nature of the experiment: ELISA on captured biotinylated hBLyS-ECD; control antibody 0.00427 nM.
For experiment [18] the target is unchanged. Described as above. This is another data set of the same source.
Experiment [19] has the same target. Briefly: ELISA on captured biotinylated hBLyS-ECD; control antibody 13.3 nM.
The target is the same in experiment [20]. Briefly: BAFF R-coated ELISA, biotinylated hBLyS-ECD bound in presence of control antibody 0.0064 nM.
The target is the same in experiment [21]. Briefly: BAFF R-coated ELISA, biotinylated hBLyS-ECD bound in presence of control antibody 0 nM. The source holds these as a separate data set.
Experiment [22] has the same target. Briefly: ELISA on captured biotinylated hBLyS-ECD; control antibody 13.3 nM. This is another data set of the same source.
For experiment [23], the target named is extracellular domain of human BLyS protein (hBLyS-ECD), His-tagged, Ala134-Leu285 (human) (UniProt Q9Y275). Briefly: cell-based or functional assay. This is another data set of the same source.
extracellular domain of human BLyS protein (hBLyS-ECD), His-tagged, Ala134-Leu285 (human), sequence (Q9Y275 134-285): as above
The target of experiment [24] is biotinylated hBLyS-ECD (human) (UniProt Q9Y275). Nature of the experiment: BAFF R-coated ELISA, biotinylated hBLyS-ECD bound in presence of control antibody 0.032 nM.
Experiment [25] has the same target. Briefly: ELISA on captured biotinylated hBLyS-ECD; control antibody 0.0213 nM.
Experiment [26] shares this target. Nature of the experiment: BAFF R-coated ELISA, biotinylated hBLyS-ECD bound in presence of control antibody 20 nM.
Experiment [27] concerns the target T1, extracellular domain of human BLyS protein (hBLyS-ECD), His-tagged, Ala134-Leu285 (human, UniProt Q9Y275 134-285). Nature of the experiment: cell-based or functional assay.
Experiment [28] deals with T1, extracellular domain of human BLyS …. Briefly: cell-based or functional assay. The source holds these as a separate data set.

Read-outs that look alike come from different tables or passages of the source.

hBLyS-ECD (His-tagged extracellular domain of human BLyS protein, Ala134-Leu285) (human), sequence (Q9Y275 134-285): as above
T1 sequence (Q9Y275 134-285): as above

In experiment [1], mIgG Control (antibody) gave a mouse B lymphocyte proliferation (OD450 nm), antibody 0 nM of 2730 OD450 nm; a mouse B lymphocyte proliferation (OD450 nm), antibody 0.000256 nM of 3130 OD450 nm; a mouse B lymphocyte proliferation (OD450 nm), antibody 0.00128 nM of 3880 OD450 nm; a mouse B lymphocyte proliferation (OD450 nm), antibody 0.0064 nM of 3700 OD450 nm. In experiment [1], this molecule gave a mouse B lymphocyte proliferation (OD450 nm), antibody 0.032 nM of 4010 OD450 nm; a mouse B lymphocyte proliferation (OD450 nm), antibody 0.16 nM of 4020 OD450 nm; a mouse B lymphocyte proliferation (OD450 nm), antibody 0.8 nM of 3950 OD450 nm; a mouse B lymphocyte proliferation (OD450 nm), antibody 4 nM of 3100 OD450 nm. Besides, in experiment [1], the mouse B lymphocyte proliferation (OD450 nm), antibody 20 nM was 2590 OD450 nm and the mouse B lymphocyte proliferation (OD450 nm), antibody 100 nM stood at 3400 OD450 nm.

hIgG Control (antibody): the OD450 nm in [2] came out at 0.237 OD450 nm; in [3], 2.15 OD450 nm; in experiment [4], 2.04 OD450 nm; in experiment [5], 0.144 OD450 nm; in experiment [6], 2.37 OD450 nm; in [7], 2.2 OD450 nm. Besides, the OD450 nm in experiment [8] turned out to be 0.119 OD450 nm; in experiment [11] it was 0.14 OD450 nm; in [12], 0.141 OD450 nm; in [13], 0.0662 OD450 nm; in [14] it was 0.0731 OD450 nm; in experiment [15] it was 1.83 OD450 nm. The OD450 nm came to 1.87 OD450 nm in experiment [16]; 0.121 OD450 nm in experiment [17]; 0.0798 OD450 nm in experiment [18]; 0.072 OD450 nm in experiment [19]; 2.01 OD450 nm in [20]; 2 OD450 nm in [21]. In addition, the OD450 nm in [22] amounted to 0.103 OD450 nm; in [24], 1.84 OD450 nm; in [25], 0.0887 OD450 nm; in [26] it was 2.01 OD450 nm. For the same molecule, in experiment [9], the IgA Conc. in mouse serum, mice given hBLyS-ECD and antibody (in vivo neutralisation) amounted to 387 µg/mL. The molecule also came in with a Proportion of B lymphocytes in splenocytes (%), mice given hBLyS-ECD and antibody (in vivo neutralisation) in experiment [9] of 39.7%. Also, in experiment [9], the mouse B lymphocyte proliferation stimulated by hBLyS-ECD (viable cell signal) at 0 nM antibody (OD450 nm (as headed)) was found to be 3570. This molecule also registered a mouse B lymphocyte proliferation stimulated by hBLyS-ECD (viable cell signal) at 0.000256 nM antibody in experiment [9] of 3970. For the same molecule, the mouse B lymphocyte proliferation stimulated by hBLyS-ECD (viable cell signal) at 0.00128 nM antibody (OD450 nm (as headed)) in experiment [9] was 3860. Moreover, the mouse B lymphocyte proliferation stimulated by hBLyS-ECD (viable cell signal) at 0.0064 nM antibody (OD450 nm (as headed)) in [9] was found to be 3730. In experiment [9], this molecule had a mouse B lymphocyte proliferation stimulated by hBLyS-ECD (viable cell signal) at 0.032 nM antibody (OD450 nm (as headed)) of 3920. The molecule further gave a mouse B lymphocyte proliferation stimulated by hBLyS-ECD (viable cell signal) at 0.16 nM antibody (OD450 nm (as headed)) in [9] of 4200. This molecule also displayed a mouse B lymphocyte proliferation stimulated by hBLyS-ECD (viable cell signal) at 0.8 nM antibody (OD450 nm (as headed)) in experiment [9] of 4290. This molecule also displayed a mouse B lymphocyte proliferation stimulated by hBLyS-ECD (viable cell signal) at 4 nM antibody (OD450 nm (as headed)) in [9] of 4430. Further, the mouse B lymphocyte proliferation stimulated by hBLyS-ECD (viable cell signal) at 20 nM antibody (OD450 nm (as headed)) in experiment [9] was 4700. Besides, in experiment [9], the mouse B lymphocyte proliferation stimulated by hBLyS-ECD (viable cell signal) at 100 nM antibody (OD450 nm (as headed)) was determined as 3720. The OD450 nm (as headed), mouse B lymphocyte proliferation; control antibody 0 nM in experiment [10] was 4390. Moreover, the OD450 nm (as headed), mouse B lymphocyte proliferation; control antibody 0.000256 nM in experiment [10] worked out at 4940. The molecule also returned an OD450 nm (as headed), mouse B lymphocyte proliferation; control antibody 0.00128 nM in experiment [10] of 4690. Moreover, the OD450 nm (as headed), mouse B lymphocyte proliferation; control antibody 0.0064 nM in experiment [10] was 5070. This molecule had an OD450 nm (as headed), mouse B lymphocyte proliferation; control antibody 0.032 nM in experiment [10] of 5120. Besides, the OD450 nm (as headed), mouse B lymphocyte proliferation; control antibody 0.16 nM in [10] stood at 5370. Further, in experiment [10], the OD450 nm (as headed), mouse B lymphocyte proliferation; control antibody 0.8 nM was 5040. In addition, in [10], the OD450 nm (as headed), mouse B lymphocyte proliferation; control antibody 4 nM is 5100. The OD450 nm (as headed), mouse B lymphocyte proliferation; control antibody 20 nM in experiment [10] is 4930. In addition, the OD450 nm (as headed), mouse B lymphocyte proliferation; control antibody 100 nM in experiment [10] amounted to 4880. Besides, the Proportion of B lymphocytes in splenocytes (%), in vivo in mice in experiment [10] was 51%; in [23], 38.3%.

B1: c97A3C2H4 (antibody, V domains shown)
VH: EVKLVESGGGLVQPGGSLKLSCAASGFTFSTYTMSWVRQTPEKRLEWVAYISYGGGSTSYPDTVKGRFTISRDNAKNTLYLQMSSLKSEDTAIYYCTRHVTVVENSMDYWGQGTSVTVSS
VL: DILLTQSPDILSVSPGERVSFSCRASQSIGTSIHWYQQRTNGSPRLLIKYVSESFSGTPSRFSGSGSGTAFTLTINSVESEDIADYYCQQTHSWPWTFGGGTKLEIK
notes: also called chimeric antibody c97A3C2H4
For B1, the “Proportion of B lymphocytes in splenocytes (%), in vivo in mice” value turned out to be 24.1% in experiment [27] and 28.2% in [28].
